This is an account of results in article PMC2171992 (The Journal of Cell Biology, 2004).

Experiment [1] addresses T1, muscle actin (UniProt P68135 1-377, labeled with pyrene). The experiment is described as follows: seeded actin assembly kinetics.
Experiment [2] has as its target T1, muscle actin. The experiment is described as follows: apparent critical concentration for actin polymerization at steady state.
The target in experiment [3] is T1, muscle actin. The experiment is described as above. This is another data set of the same source.

B1: Cap1Δ(239–268)/Cap2Δ(264–287) (complex)
chain 1: MSSSKFEEVINKIINDSPPGELREVYDDLIKITSENSKNTILDAIENYNVQNCIPIEVNGNSVIISKYNKEGAKFFDPVNSVIFSVNHLERKGLDIEPYEFTHAKIEKGQLKELHDKLHEYLLQSFPGDVSFAVYPVPEEISKISIIIVSTKYNPNNFWNGHWRSSYIYDLETRELSGQISTQVHYYEDGNVSFQSGKDINQSNVDDVVCTIRDIETNFENDLDLSFFDLNEKQFKAL
chain 2: MSDAQFDAALDLLRRLNPTTLQENLNNLIELQPNLAQDLLSSVDVPLSTQKDSADSNREYLCCDYNRDIDSFRSPWSNTYYPELSPKDLQDSPFPSAPLRKLEILANDSFDVYRDLYYEGGISSVYLWDLNEEDFNGHDFAGVVLFKKNQSDHSNWDSIHVFEVTTSPSSPDSFNYRVTTTIILHLDKTKTDQNSHMMLSGNLTRQTEKDIAIDMSRPLDVIFTSHVANLGSLIEDIESQMRNLLETVYFEKTRDIFHQTKNA
Regarding B1, in the experiment with muscle actin [1], the Kd is 33400 nM, the koff worked out at 0.012 s⁻¹ and the kon was 370 M⁻¹ s⁻¹.

B2: Cap1(Δ239–268)/Cap2(Δ261–287) (complex)
chain 1: MSSSKFEEVINKIINDSPPGELREVYDDLIKITSENSKNTILDAIENYNVQNCIPIEVNGNSVIISKYNKEGAKFFDPVNSVIFSVNHLERKGLDIEPYEFTHAKIEKGQLKELHDKLHEYLLQSFPGDVSFAVYPVPEEISKISIIIVSTKYNPNNFWNGHWRSSYIYDLETRELSGQISTQVHYYEDGNVSFQSGKDINQSNVDDVVCTIRDIETNFENDLDLSFFDLNEKQFKAL
chain 2: MSDAQFDAALDLLRRLNPTTLQENLNNLIELQPNLAQDLLSSVDVPLSTQKDSADSNREYLCCDYNRDIDSFRSPWSNTYYPELSPKDLQDSPFPSAPLRKLEILANDSFDVYRDLYYEGGISSVYLWDLNEEDFNGHDFAGVVLFKKNQSDHSNWDSIHVFEVTTSPSSPDSFNYRVTTTIILHLDKTKTDQNSHMMLSGNLTRQTEKDIAIDMSRPLDVIFTSHVANLGSLIEDIESQMRNLLETVYFEKTRDIFHQT
In the case of B2, the Kd with muscle actin [2] is at least 100000 nM.

B3: wild-type yeast capping protein (Cap1/Cap2) (complex)
chain 1: MSSSKFEEVINKIINDSPPGELREVYDDLIKITSENSKNTILDAIENYNVQNCIPIEVNGNSVIISKYNKEGAKFFDPVNSVIFSVNHLERKGLDIEPYEFTHAKIEKGQLKELHDKLHEYLLQSFPGDVSFAVYPVPEEISKISIIIVSTKYNPNNFWNGHWRSSYIYDLETRELSGQISTQVHYYEDGNVSFQSGKDINQSNVDDVVCTIRDIETNFENDLDLSFFDLNEKQFKALRRRLPVTRSKINWGSAIGSYRLGKNAAEGK
chain 2: MSDAQFDAALDLLRRLNPTTLQENLNNLIELQPNLAQDLLSSVDVPLSTQKDSADSNREYLCCDYNRDIDSFRSPWSNTYYPELSPKDLQDSPFPSAPLRKLEILANDSFDVYRDLYYEGGISSVYLWDLNEEDFNGHDFAGVVLFKKNQSDHSNWDSIHVFEVTTSPSSPDSFNYRVTTTIILHLDKTKTDQNSHMMLSGNLTRQTEKDIAIDMSRPLDVIFTSHVANLGSLIEDIESQMRNLLETVYFEKTRDIFHQTKNAAIASSAEEANKDAQAEVIRGLQSL
B3: in the experiment with muscle actin [3], the Kd stood at 4 nM. In the experiment with muscle actin [1], the Kd was determined as 1.2 nM, the koff was 0.00156 s⁻¹ and the kon was determined as 1.16e+06 M⁻¹ s⁻¹.

B4: Cap1/Cap2Δ(261–287) (complex)
chain 1: MSSSKFEEVINKIINDSPPGELREVYDDLIKITSENSKNTILDAIENYNVQNCIPIEVNGNSVIISKYNKEGAKFFDPVNSVIFSVNHLERKGLDIEPYEFTHAKIEKGQLKELHDKLHEYLLQSFPGDVSFAVYPVPEEISKISIIIVSTKYNPNNFWNGHWRSSYIYDLETRELSGQISTQVHYYEDGNVSFQSGKDINQSNVDDVVCTIRDIETNFENDLDLSFFDLNEKQFKALRRRLPVTRSKINWGSAIGSYRLGKNAAEGK
chain 2: MSDAQFDAALDLLRRLNPTTLQENLNNLIELQPNLAQDLLSSVDVPLSTQKDSADSNREYLCCDYNRDIDSFRSPWSNTYYPELSPKDLQDSPFPSAPLRKLEILANDSFDVYRDLYYEGGISSVYLWDLNEEDFNGHDFAGVVLFKKNQSDHSNWDSIHVFEVTTSPSSPDSFNYRVTTTIILHLDKTKTDQNSHMMLSGNLTRQTEKDIAIDMSRPLDVIFTSHVANLGSLIEDIESQMRNLLETVYFEKTRDIFHQT
As for B4, the Kd in the experiment with muscle actin [3] amounted to 25 nM. In the experiment with muscle actin [1], this molecule had a Kd of 7.8 nM, an off-rate constant (koff) of 0.0163 s⁻¹ and a kon of 2.09e+06 M⁻¹ s⁻¹.

B5: Cap1/Cap2Δ(264–287) (complex)
chain 1: MSSSKFEEVINKIINDSPPGELREVYDDLIKITSENSKNTILDAIENYNVQNCIPIEVNGNSVIISKYNKEGAKFFDPVNSVIFSVNHLERKGLDIEPYEFTHAKIEKGQLKELHDKLHEYLLQSFPGDVSFAVYPVPEEISKISIIIVSTKYNPNNFWNGHWRSSYIYDLETRELSGQISTQVHYYEDGNVSFQSGKDINQSNVDDVVCTIRDIETNFENDLDLSFFDLNEKQFKALRRRLPVTRSKINWGSAIGSYRLGKNAAEGK
chain 2: MSDAQFDAALDLLRRLNPTTLQENLNNLIELQPNLAQDLLSSVDVPLSTQKDSADSNREYLCCDYNRDIDSFRSPWSNTYYPELSPKDLQDSPFPSAPLRKLEILANDSFDVYRDLYYEGGISSVYLWDLNEEDFNGHDFAGVVLFKKNQSDHSNWDSIHVFEVTTSPSSPDSFNYRVTTTIILHLDKTKTDQNSHMMLSGNLTRQTEKDIAIDMSRPLDVIFTSHVANLGSLIEDIESQMRNLLETVYFEKTRDIFHQTKNA
With B5, in the experiment with muscle actin [3], the Kd amounted to 25 nM. Moreover, in the experiment with muscle actin [1], the Kd turned out to be 8 nM, the koff was 0.017 s⁻¹ and the kon amounted to 2.1e+06 M⁻¹ s⁻¹.

B6: Cap1 (W251A)/Cap2 (complex)
chain 1: MSSSKFEEVINKIINDSPPGELREVYDDLIKITSENSKNTILDAIENYNVQNCIPIEVNGNSVIISKYNKEGAKFFDPVNSVIFSVNHLERKGLDIEPYEFTHAKIEKGQLKELHDKLHEYLLQSFPGDVSFAVYPVPEEISKISIIIVSTKYNPNNFWNGHWRSSYIYDLETRELSGQISTQVHYYEDGNVSFQSGKDINQSNVDDVVCTIRDIETNFENDLDLSFFDLNEKQFKALRRRLPVTRSKINAGSAIGSYRLGKNAAEGK
chain 2: MSDAQFDAALDLLRRLNPTTLQENLNNLIELQPNLAQDLLSSVDVPLSTQKDSADSNREYLCCDYNRDIDSFRSPWSNTYYPELSPKDLQDSPFPSAPLRKLEILANDSFDVYRDLYYEGGISSVYLWDLNEEDFNGHDFAGVVLFKKNQSDHSNWDSIHVFEVTTSPSSPDSFNYRVTTTIILHLDKTKTDQNSHMMLSGNLTRQTEKDIAIDMSRPLDVIFTSHVANLGSLIEDIESQMRNLLETVYFEKTRDIFHQTKNAAIASSAEEANKDAQAEVIRGLQSL
Regarding B6, in the experiment with muscle actin [3], the Kd was determined as 250 nM. In the experiment with muscle actin [1], this molecule returned a Kd of 91 nM, an off-rate constant (koff) of 0.0259 s⁻¹ and an on-rate constant (kon) of 300000 M⁻¹ s⁻¹.

B7: Cap1 (R239A)/Cap2 (complex)
chain 1: MSSSKFEEVINKIINDSPPGELREVYDDLIKITSENSKNTILDAIENYNVQNCIPIEVNGNSVIISKYNKEGAKFFDPVNSVIFSVNHLERKGLDIEPYEFTHAKIEKGQLKELHDKLHEYLLQSFPGDVSFAVYPVPEEISKISIIIVSTKYNPNNFWNGHWRSSYIYDLETRELSGQISTQVHYYEDGNVSFQSGKDINQSNVDDVVCTIRDIETNFENDLDLSFFDLNEKQFKALARRLPVTRSKINWGSAIGSYRLGKNAAEGK
chain 2: MSDAQFDAALDLLRRLNPTTLQENLNNLIELQPNLAQDLLSSVDVPLSTQKDSADSNREYLCCDYNRDIDSFRSPWSNTYYPELSPKDLQDSPFPSAPLRKLEILANDSFDVYRDLYYEGGISSVYLWDLNEEDFNGHDFAGVVLFKKNQSDHSNWDSIHVFEVTTSPSSPDSFNYRVTTTIILHLDKTKTDQNSHMMLSGNLTRQTEKDIAIDMSRPLDVIFTSHVANLGSLIEDIESQMRNLLETVYFEKTRDIFHQTKNAAIASSAEEANKDAQAEVIRGLQSL
For B7, the Kd with muscle actin [3] was found to be 400 nM. In the experiment with muscle actin [1], this molecule gave a Kd of 176 nM, an off-rate (koff) of 0.0275 s⁻¹ and a kon of 156000 M⁻¹ s⁻¹.
